Source: patent US20210087281A1 (AGOMAB THERAPEUTICS, published 2021)

Legend:
[1] = biological target: human MET ECD mutant I (mutations 6, 7, 8) (human) (UniProt P08581); assay: ELISA, MET ECD in solid phase, mAb 0-50 nM
[2] = biological target: human MET ECD mutant J (mutations 6, 7) (human) (UniProt P08581); assay: ELISA, MET ECD in solid phase, mAb 0-50 nM
[3] = biological target: T1, native mouse MET on living cells (mouse, UniProt P16056 25-1379); assay: cell-based or functional assay
[4] = biological target: T2, native human MET on living cells (human, UniProt P08581 25-1390); assay: cell-based or functional assay
[5] = biological target: T1, native mouse MET on living cells; assay: cell-based or functional assay; remark: listed apart in the source
[6] = biological target: T2, native human MET on living cells; assay: cell-based or functional assay; remark: listed apart in the source
[7] = biological target: T3, human MET-Fc (R&D Systems) (human, UniProt P08581 25-932); assay: competition ELISA, hMET-Fc in solid phase, competitor 0.3 nM biotinylated hHGF
T3 construct: extracellular domain; bought chimeric protein; also called hMET; not shown: Fc portion of human IgG1
In short: (§1)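 Values are IC₅₀, the antibody level reaching half-maximal competition, and IMAX, the highest percent competition at saturation. Each antibody was added from 0 to 120 nM alongside HGF labelled at the N-terminus with NHS-LC-biotin, on immobilized MET-Fc.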

[8] = biological target: T1, native mouse MET on living cells; assay: flow cytometry, MLP29 cells
In short: (§2)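 Detection used a phycoerythrin-labelled anti-human IgG1 secondary and flow cytometry, measuring binding of chimeric antibodies to native MET on live A549 (human) or MLP29 (mouse) cells. Positive controls were a mouse anti-human MET and a goat anti-mouse MET antibody, each with a PE-labelled secondary.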

[9] = biological target: T1, native mouse MET on living cells; assay: cell-based or functional assay; remark: listed apart in the source
[10] = biological target: T2, native human MET on living cells; assay: cell-based or functional assay; remark: listed apart in the source
[11] = biological target: T4, mouse MET-Fc (R&D Systems) (mouse, UniProt P16056 25-929, limits assumed); assay: competition ELISA, mMET-Fc in solid phase, competitor 0.3 nM biotinylated mHGF
T4 construct: bought chimeric protein; also called mMET; not shown: Fc part
In short: as §1

[12] = biological target: T2, native human MET on living cells; assay: flow cytometry, A549 cells
In short: as §2

human MET ECD [13] = biological target: T5, human MET ECD (human, UniProt P08581 25-932); assay: ELISA, MET ECD in solid phase, mAb 0-20 nM
T5 construct: range 1-932; recombinant ECD made by the applicants; the stated range begins at residue 1, so it includes the signal peptide of the entry; also called hMET; hMET ECD
In short: (§3)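 First, chimeric IgG1 (llama variable, human constant) was produced transiently in mammalian cells. Next, it was purified on protein A. Finally, graded antibody concentrations in solution were applied to plate-bound MET ECD and binding was read by ELISA.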

mouse MET ECD = biological target: T6, mouse MET ECD (mouse, UniProt P16056 25-931); assay: ELISA, MET ECD in solid phase, mAb 0-20 nM
T6 construct: range 1-931; recombinant ECD made by the applicants; the stated range begins at residue 1; also called mMET; mMET ECD
In short: as §3

[14] = biological target: T1, native mouse MET on living cells; assay: cell-based or functional assay; remark: listed apart in the source
[15] = biological target: T2, native human MET on living cells; assay: cell-based or functional assay; remark: listed apart in the source
[16] = biological target: human MET ECD mutant A (mutations 1, 2, 3) (human) (UniProt P08581); assay: ELISA, MET ECD in solid phase, mAb 0-50 nM
[17] = biological target: human MET ECD mutant E (mutations 2, 3, 4) (human) (UniProt P08581); assay: ELISA, MET ECD in solid phase, mAb 0-50 nM
[18] = biological target: human MET ECD mutant H (mutations 2, 4) (human) (UniProt P08581); assay: ELISA, MET ECD in solid phase, mAb 0-50 nM
[19] = biological target: human MET ECD mutant D (mutations 1, 2) (human) (UniProt P08581); assay: ELISA, MET ECD in solid phase, mAb 0-50 nM
human MET ECD [20] = biological target: T5, human MET ECD; assay: ELISA, MET ECD in solid phase, mAb 0-50 nM
Experimental: Using human MET as a template, we mutagenized each of these residues in different permutations, generating a series of MET mutants that are fully human except for specific residues, which are llama. Next, we tested the affinity of selected SEMA-binding mAbs (71D6, 71C3, 71D4, 71A3, 71G2) and PSI-binding mAbs (76H10 and 71G3) for these MET mutants by ELISA. To this end, the various MET proteins were immobilized in solid phase (100 ng/well in a 96-well plate) and then exposed to increasing concentrations of antibodies (0-50 nM) solution. […] Wild-type human MET was used as positive control.
TABLE 18 The epitopes of MET responsible for agonistic antibody binding represent residues conserved among H. sapiens, M. musculus, R. norvegicus, M. fascicularis but not among the same species and L. glama. The relevance of residues conserved among human, mouse, rat, cynomolgus monkey but not llama MET for binding to agonistic mAbs was tested by ELISA. Wild-type (WT) or mutant (MT) human MET ECD was immobilized in solid phase and exposed to increasing concentrations of mAbs in solution. […] All binding values were normalized to the WT protein and are expressed as % binding (EMAX) compared to WT MET.

T5 sequence (P08581 25-932 limits assumed, form in doubt): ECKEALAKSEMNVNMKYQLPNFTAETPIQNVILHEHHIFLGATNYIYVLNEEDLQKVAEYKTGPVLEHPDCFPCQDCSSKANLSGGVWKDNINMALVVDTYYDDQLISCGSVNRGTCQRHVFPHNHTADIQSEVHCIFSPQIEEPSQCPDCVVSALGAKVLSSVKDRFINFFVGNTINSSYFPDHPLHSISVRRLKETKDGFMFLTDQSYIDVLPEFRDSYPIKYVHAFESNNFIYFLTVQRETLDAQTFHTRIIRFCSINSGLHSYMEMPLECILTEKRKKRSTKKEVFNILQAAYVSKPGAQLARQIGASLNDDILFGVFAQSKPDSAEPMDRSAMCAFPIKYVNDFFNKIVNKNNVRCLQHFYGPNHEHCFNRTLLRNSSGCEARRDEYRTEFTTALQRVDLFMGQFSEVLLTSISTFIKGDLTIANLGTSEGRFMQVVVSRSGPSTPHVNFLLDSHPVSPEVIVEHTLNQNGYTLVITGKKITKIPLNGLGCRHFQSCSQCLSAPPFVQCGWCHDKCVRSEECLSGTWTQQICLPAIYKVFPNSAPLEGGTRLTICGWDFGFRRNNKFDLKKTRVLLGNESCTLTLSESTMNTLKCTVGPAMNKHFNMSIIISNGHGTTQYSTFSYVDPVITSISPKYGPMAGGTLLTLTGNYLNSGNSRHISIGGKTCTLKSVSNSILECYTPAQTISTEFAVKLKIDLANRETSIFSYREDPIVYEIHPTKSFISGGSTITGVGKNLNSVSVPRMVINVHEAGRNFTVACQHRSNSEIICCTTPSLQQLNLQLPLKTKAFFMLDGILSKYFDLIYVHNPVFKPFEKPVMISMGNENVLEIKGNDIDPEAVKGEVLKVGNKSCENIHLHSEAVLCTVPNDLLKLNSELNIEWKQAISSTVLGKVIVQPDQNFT
T3 sequence (P08581 25-932): as the sequence (P08581 25-932 limits assumed, form in doubt) above
T2 sequence (P08581 25-1390): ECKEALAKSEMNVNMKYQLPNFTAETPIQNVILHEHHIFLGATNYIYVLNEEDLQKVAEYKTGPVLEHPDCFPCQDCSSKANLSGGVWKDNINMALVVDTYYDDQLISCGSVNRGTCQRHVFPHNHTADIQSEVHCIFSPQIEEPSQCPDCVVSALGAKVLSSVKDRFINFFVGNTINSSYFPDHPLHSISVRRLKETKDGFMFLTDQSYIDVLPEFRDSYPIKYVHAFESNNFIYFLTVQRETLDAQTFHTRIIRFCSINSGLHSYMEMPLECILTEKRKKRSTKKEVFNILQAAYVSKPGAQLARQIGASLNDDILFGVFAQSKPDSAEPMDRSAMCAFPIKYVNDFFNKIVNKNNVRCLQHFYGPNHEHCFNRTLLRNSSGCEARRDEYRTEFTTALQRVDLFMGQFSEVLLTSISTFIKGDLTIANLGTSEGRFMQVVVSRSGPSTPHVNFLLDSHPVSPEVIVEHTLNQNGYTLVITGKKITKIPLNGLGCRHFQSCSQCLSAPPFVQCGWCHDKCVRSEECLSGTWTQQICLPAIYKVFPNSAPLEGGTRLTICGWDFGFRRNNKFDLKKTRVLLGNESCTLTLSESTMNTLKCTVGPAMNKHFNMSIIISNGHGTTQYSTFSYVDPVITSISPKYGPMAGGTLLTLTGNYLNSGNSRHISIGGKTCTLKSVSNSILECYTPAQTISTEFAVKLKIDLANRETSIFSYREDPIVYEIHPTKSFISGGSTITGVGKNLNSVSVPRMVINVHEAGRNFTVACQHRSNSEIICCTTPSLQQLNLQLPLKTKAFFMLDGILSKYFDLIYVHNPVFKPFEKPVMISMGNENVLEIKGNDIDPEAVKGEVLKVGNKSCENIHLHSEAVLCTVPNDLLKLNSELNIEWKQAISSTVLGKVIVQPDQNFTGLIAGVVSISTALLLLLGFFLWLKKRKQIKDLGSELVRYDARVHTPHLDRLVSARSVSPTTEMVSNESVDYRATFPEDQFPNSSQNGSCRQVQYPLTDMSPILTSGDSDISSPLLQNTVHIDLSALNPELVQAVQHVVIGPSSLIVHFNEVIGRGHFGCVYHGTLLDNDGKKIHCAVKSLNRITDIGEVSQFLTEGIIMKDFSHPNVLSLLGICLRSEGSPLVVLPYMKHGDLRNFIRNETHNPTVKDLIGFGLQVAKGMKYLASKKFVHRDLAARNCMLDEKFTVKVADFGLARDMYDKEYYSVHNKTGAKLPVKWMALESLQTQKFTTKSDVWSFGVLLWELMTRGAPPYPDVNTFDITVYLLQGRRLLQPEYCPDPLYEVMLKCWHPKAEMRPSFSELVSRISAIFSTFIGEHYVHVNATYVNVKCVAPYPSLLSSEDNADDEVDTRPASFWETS

B1: 76H10 chimeric llama-human IgG1 mAb (antibody, V domains shown)
VH: QLQLVESGGGLVQPGGSLRVSCTASGFTFNTYYMTWVRQAPGKGLEWVSDINSGGGTYYADSVKGRFTISRDNAKNTLYLQMNSLKPEDTALYYCVRVRIWPVGYDYWGQGTQVTVSS
VL: QAVVTQEPSLSVSPGGTVTLTCGLSSGSVTTSNYPGWFQQTPGQAPRTLIYNTNNRHSGVPSRFSGSISGNKAALTITGAQPEDEADYYCSLYTGSYTTVFGGGTHLTVL
notes: llama VH on human IgG1 CH1-CH2-CH3, llama VL on human lambda CL
- % binding (EMAX) compared to WT MET [1]: 100 % WT MET ECD
- % binding (EMAX) compared to WT MET [2]: 89 % WT MET ECD
- scatter score 0-4, MLP29, 0.001 nM [3]: 0 score
- scatter score 0-4, MLP29, 0.004 nM [3]: 0 score
- scatter score 0-4, MLP29, 0.012 nM [3]: 0 score
- scatter score 0-4, MLP29, 0.037 nM [3]: 0 score
- scatter score 0-4, MLP29, 0.111 nM [3]: 0 score
- scatter score 0-4, MLP29, 0.333 nM [3]: 0 score
- scatter score 0-4, MLP29, 1.000 nM [3]: 1 score
- scatter score 0-4, MLP29, 3.000 nM [3]: 2 score
- scatter score 0-4, MLP29, 9.000 nM [3]: 3 score
- scatter score 0-4, HPAF-II, 0.001 nM [4]: 0 score
- scatter score 0-4, HPAF-II, 0.004 nM [4]: 0 score
- scatter score 0-4, HPAF-II, 0.012 nM [4]: 0 score
- scatter score 0-4, HPAF-II, 0.037 nM [4]: 0 score
- scatter score 0-4, HPAF-II, 0.111 nM [4]: 0 score
- scatter score 0-4, HPAF-II, 0.333 nM [4]: 0 score
- scatter score 0-4, HPAF-II, 1.000 nM [4]: 1 score
- scatter score 0-4, HPAF-II, 3.000 nM [4]: 2 score
- scatter score 0-4, HPAF-II, 9.000 nM [4]: 3 score
- phospho-MET ELISA EC50, MLP29 cells [5]: 2.91 nM
- phospho-MET ELISA EMAX (% HGF activity), MLP29 cells [5]: 64.1%
- phospho-MET ELISA EC50, A549 cells [6]: 1.77 nM
- phospho-MET ELISA EMAX (% HGF activity), A549 cells [6]: 61.2%
- IC50 [7]: 1.86 nM
- IMAX [7]: 64.2%
- EC50 [8]: 1.6 nM
- EMAX [8]: 124 % relative to control
- protection from staurosporine, viability EC50, MLP29 cells [9]: > 32 nM
- protection from staurosporine, viability EMAX, MLP29 cells [9]: 27.2%
- protection from staurosporine, viability EC50, MCF10A cells [10]: > 32 nM
- protection from staurosporine, viability EMAX, MCF10A cells [10]: 22.8%
- IC50 [11]: 2.01 nM
- IMAX [11]: 62.7%
- EC50 [12]: 2.35 nM
- EMAX [12]: 130 % relative to control
- EC50 (human MET ECD [13]): 0.09 nM
- EMAX (OD450) (human MET ECD [13]): 2.67 AU
- EC50 (mouse MET ECD): 0.062 nM
- EMAX (OD450) (mouse MET ECD): 2.66 AU
- branches per spheroid, MLP29 cells, 0.5 nM [14]: 10.7 branches
- branches per spheroid, MLP29 cells, 2.5 nM [14]: 14.3 branches
- branches per spheroid, MLP29 cells, 12.5 nM [14]: 24.7 branches
- branches per spheroid, LOC cells, 0.5 nM [15]: 7.3 branches
- branches per spheroid, LOC cells, 2.5 nM [15]: 11.7 branches
- branches per spheroid, LOC cells, 12.5 nM [15]: 16.7 branches

B2: 71G2 chimeric llama-human IgG1 mAb (antibody, V domains shown)
VH: EVQLQESGGGLVQPGGSLRLSCAASGFTFSIYDMSWVRQAPGKGLEWVSTINSDGSSTSYVDSVKGRFTISRDNAKNTLYLQMNSLKPEDTAVYYCAKVYGSTWDVGPMGYGMDYWGKGTLVTVSS
VL: SSALTQPSALSVSLGQTARITCQGGSLGSSYAHWYQQKPGQAPVLVIYGDDSRPSGIPERFSGSSSGGTATLTISGAQAEDEDDYYCQSTDSSGNTVFGGGTRLTVL
notes: as for B1
- % binding (EMAX) compared to WT MET [16]: 92.1 % WT MET ECD
- % binding (EMAX) compared to WT MET [17]: 41.4 % WT MET ECD
- % binding (EMAX) compared to WT MET [18]: 40.2 % WT MET ECD
- % binding (EMAX) compared to WT MET [19]: 114 % WT MET ECD
- scatter score 0-4, MLP29, 0.001 nM [3]: 0 score
- scatter score 0-4, MLP29, 0.004 nM [3]: 0 score
- scatter score 0-4, MLP29, 0.012 nM [3]: 1 score
- scatter score 0-4, MLP29, 0.037 nM [3]: 2 score
- scatter score 0-4, MLP29, 0.111 nM [3]: 4 score
- scatter score 0-4, MLP29, 0.333 nM [3]: 4 score
- scatter score 0-4, MLP29, 1.000 nM [3]: 4 score
- scatter score 0-4, MLP29, 3.000 nM [3]: 4 score
- scatter score 0-4, MLP29, 9.000 nM [3]: 4 score
- scatter score 0-4, HPAF-II, 0.001 nM [4]: 0 score
- scatter score 0-4, HPAF-II, 0.004 nM [4]: 1 score
- scatter score 0-4, HPAF-II, 0.012 nM [4]: 2 score
- scatter score 0-4, HPAF-II, 0.037 nM [4]: 3 score
- scatter score 0-4, HPAF-II, 0.111 nM [4]: 4 score
- scatter score 0-4, HPAF-II, 0.333 nM [4]: 4 score
- scatter score 0-4, HPAF-II, 1.000 nM [4]: 4 score
- scatter score 0-4, HPAF-II, 3.000 nM [4]: 4 score
- scatter score 0-4, HPAF-II, 9.000 nM [4]: 4 score
- phospho-MET ELISA EC50, MLP29 cells [5]: 0.25 nM
- phospho-MET ELISA EMAX (% HGF activity), MLP29 cells [5]: 110%
- phospho-MET ELISA EC50, A549 cells [6]: 0.37 nM
- phospho-MET ELISA EMAX (% HGF activity), A549 cells [6]: 101%
- IC50 [7]: 0.23 nM
- IMAX [7]: 97.8%
- EC50 [8]: 0.688 nM
- EMAX [8]: 130 % relative to control
- protection from staurosporine, viability EC50, MLP29 cells [9]: 1.99 nM
- protection from staurosporine, viability EMAX, MLP29 cells [9]: 58.3%
- protection from staurosporine, viability EC50, MCF10A cells [10]: 1.06 nM
- protection from staurosporine, viability EMAX, MCF10A cells [10]: 64.8%
- % binding (EMAX) compared to WT MET (human MET ECD [20]): 100 % WT MET ECD
- IC50 [11]: 0.26 nM
- IMAX [11]: 91.9%
- EC50 [12]: 0.604 nM
- EMAX [12]: 144 % relative to control
- EC50 (human MET ECD [13]): 0.112 nM
- EMAX (OD450) (human MET ECD [13]): 3.09 AU
- EC50 (mouse MET ECD): 0.101 nM
- EMAX (OD450) (mouse MET ECD): 3.17 AU
- branches per spheroid, MLP29 cells, 0.5 nM [14]: 34 branches
- branches per spheroid, MLP29 cells, 2.5 nM [14]: 46.3 branches
- branches per spheroid, MLP29 cells, 12.5 nM [14]: 45 branches
- branches per spheroid, LOC cells, 0.5 nM [15]: 25.3 branches
- branches per spheroid, LOC cells, 2.5 nM [15]: 29.3 branches
- branches per spheroid, LOC cells, 12.5 nM [15]: 31.7 branches
